Measurements reported in article PMC10653929, “Activities, substrate specificity, and genetic interactions of fission yeast Siw14, a cysteinyl-phosphatase-type inositol pyrophosphatase” (mBio, 2023).

Legend:
Cys403 = Cys403 (UniProt position 403, RPVIHCRAGVG); assay: chemical modification; details: cited from earlier work
SpSiw14; Siw14-(1-287) = target: T1, SpSiw14; Siw14-(1-287) (Schizosaccharomyces pombe, UniProt Q9UUF3); assay: inhibition of p-nitrophenylphosphate hydrolysis; type: biochemical
T1 construct: full length aa 1-287, E. coli BL21(DE3), His10Smt3 tag removed with Ulp1, monomer by gel filtration
T1 sequence (Q9UUF3 1-287): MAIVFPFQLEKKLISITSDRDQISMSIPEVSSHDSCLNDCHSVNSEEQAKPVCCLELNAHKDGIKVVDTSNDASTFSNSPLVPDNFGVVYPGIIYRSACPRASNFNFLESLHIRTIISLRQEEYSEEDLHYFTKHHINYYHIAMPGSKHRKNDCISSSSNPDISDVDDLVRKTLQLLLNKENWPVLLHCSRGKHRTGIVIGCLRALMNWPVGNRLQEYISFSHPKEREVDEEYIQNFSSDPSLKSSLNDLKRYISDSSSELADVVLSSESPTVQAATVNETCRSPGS
From the text: inhibition of p-nitrophenylphosphate hydrolysis on SpSiw14; Siw14-(1-287) | Phosphate and sulfate elicited a similar concentration-dependent inhibition of SpSiw14 phosphatase activity with an IC50

purified protein = substrate: O=[N+]([O-])c1ccc(OP(=O)(O)O)cc1; assay: purified protein; type: biochemical, Schizosaccharomyces pombe; details: 25 mM Tris-acetate pH 5.0, 1 mM DTT, 37°C, no divalent cation
[1] = substrate: O=P(O)(O)OP(=O)(O)O; assay: phosphate release by Malachite Green, Michaelis-Menten fit; type: biochemical, Schizosaccharomyces pombe; details: 25 mM Tris-acetate pH 5.0, 1 mM DTT, 37°C, no divalent cation, apparent kcat per PPi consumed

## Yersinia protein tyrosine phosphatase (Yersinia PTPase, YopH/Yop51) (Yersinia sp. (species not stated in the article; inferred Yersinia enterocolitica))
Cys403
  pKa: 4.67

## O=S(=O)(O)O [sulfate]
SpSiw14; Siw14-(1-287)
  IC50: ~5 mM

## O=P(O)(O)O [inorganic phosphate]
SpSiw14; Siw14-(1-287)
  IC50: ~5 mM

B1: SpSiw14; Siw14-(1-287) (Schizosaccharomyces pombe 972h-) (protein)
chain: T1 sequence (Q9UUF3 1-287)
notes: full length aa 1-287, E. coli BL21(DE3), His10Smt3 tag removed with Ulp1, monomer by gel filtration
Purified protein
  Km: 1640 ± 180 µM
  kcat: 1.24 ± 0.045 s⁻¹
[1]
  Km: 1130 ± 340 µM
  kcat: 0.443 ± 0.0817 s⁻¹
